Assays:
[1] = target: torsinA (endogenous, mouse fibroblasts) (mouse (endogenous in MFs)) (UniProt Q9ER39); assay: co-IP
[2] = target: YFP-human-nesprin-3 (human) (UniProt Q6ZMZ3); assay: co-IP
Sequence of YFP-human-nesprin-3 (human) (Q6ZMZ3 whole entry): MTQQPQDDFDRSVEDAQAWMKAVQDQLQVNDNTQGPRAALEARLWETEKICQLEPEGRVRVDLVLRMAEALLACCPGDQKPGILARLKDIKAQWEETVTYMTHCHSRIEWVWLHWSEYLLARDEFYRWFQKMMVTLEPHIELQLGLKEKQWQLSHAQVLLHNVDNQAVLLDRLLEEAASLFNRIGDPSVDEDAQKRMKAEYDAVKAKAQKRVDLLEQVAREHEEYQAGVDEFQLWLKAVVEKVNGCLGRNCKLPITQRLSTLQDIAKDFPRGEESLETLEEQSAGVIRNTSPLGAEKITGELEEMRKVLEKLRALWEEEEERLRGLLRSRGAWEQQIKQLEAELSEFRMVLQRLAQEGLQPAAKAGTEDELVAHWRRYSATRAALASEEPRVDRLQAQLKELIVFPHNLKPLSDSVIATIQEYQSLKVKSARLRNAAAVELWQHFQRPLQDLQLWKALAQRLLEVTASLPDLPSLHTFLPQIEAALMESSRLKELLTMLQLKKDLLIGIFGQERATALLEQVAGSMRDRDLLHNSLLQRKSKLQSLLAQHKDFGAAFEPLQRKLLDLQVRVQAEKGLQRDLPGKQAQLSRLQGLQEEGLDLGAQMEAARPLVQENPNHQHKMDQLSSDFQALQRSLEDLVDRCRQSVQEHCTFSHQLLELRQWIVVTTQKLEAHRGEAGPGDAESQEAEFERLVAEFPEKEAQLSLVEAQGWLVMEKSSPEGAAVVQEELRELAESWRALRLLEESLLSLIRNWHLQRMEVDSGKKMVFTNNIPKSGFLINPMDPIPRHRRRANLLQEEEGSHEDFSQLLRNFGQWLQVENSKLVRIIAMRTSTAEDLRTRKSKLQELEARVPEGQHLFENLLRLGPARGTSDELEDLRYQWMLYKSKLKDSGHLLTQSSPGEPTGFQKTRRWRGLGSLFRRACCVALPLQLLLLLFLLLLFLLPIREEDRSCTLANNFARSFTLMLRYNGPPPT

Sequence of torsinAΔE (human, expressed in 293T cells) (O14656 21-332, stated change not applied): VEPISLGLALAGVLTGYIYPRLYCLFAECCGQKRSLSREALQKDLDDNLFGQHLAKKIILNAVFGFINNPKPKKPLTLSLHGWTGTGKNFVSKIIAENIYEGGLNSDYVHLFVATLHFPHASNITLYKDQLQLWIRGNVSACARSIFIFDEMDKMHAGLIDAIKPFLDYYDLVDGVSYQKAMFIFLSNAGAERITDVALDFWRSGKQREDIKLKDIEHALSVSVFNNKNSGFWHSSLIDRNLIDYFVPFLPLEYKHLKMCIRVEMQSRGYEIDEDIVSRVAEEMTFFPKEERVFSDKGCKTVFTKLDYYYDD
Sequence of torsinA (endogenous, mouse fibroblasts) (mouse (endogenous in MFs)) (Q9ER39 21-333): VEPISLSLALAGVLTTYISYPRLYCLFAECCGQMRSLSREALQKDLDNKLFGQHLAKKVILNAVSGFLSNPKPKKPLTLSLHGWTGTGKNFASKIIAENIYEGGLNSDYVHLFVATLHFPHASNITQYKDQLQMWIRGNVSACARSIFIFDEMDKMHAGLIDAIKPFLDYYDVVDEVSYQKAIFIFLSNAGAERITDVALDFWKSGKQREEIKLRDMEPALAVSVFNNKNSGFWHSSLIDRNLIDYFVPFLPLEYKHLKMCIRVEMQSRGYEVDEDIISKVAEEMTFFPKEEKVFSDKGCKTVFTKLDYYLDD

| percentage immunoprecipitated from lysates [1] [%] | percentage immunoprecipitated with YFP-nesprin-3 in the presence of ATP [2] [%] | Substance |
| --- | --- | --- |
| 7 | – | plectin (endogenous, mouse fibroblasts), Q9QXS1 1-4691 |
| – | 25 | torsinAΔE (human, expressed in 293T cells) (from UniProt O14656 21-332) (natural protein) |
